Laboratory results published in publication PMC10786891, “Massively parallel profiling of RNA-targeting CRISPR-Cas13d”.
Positions count from the first letter of the chain named.

T1: EsCas13d, nuclease-dead (Eubacterium siraeum, UniProt B0MS50, R295A;H300A;R849A;H854A)
T1 sequence: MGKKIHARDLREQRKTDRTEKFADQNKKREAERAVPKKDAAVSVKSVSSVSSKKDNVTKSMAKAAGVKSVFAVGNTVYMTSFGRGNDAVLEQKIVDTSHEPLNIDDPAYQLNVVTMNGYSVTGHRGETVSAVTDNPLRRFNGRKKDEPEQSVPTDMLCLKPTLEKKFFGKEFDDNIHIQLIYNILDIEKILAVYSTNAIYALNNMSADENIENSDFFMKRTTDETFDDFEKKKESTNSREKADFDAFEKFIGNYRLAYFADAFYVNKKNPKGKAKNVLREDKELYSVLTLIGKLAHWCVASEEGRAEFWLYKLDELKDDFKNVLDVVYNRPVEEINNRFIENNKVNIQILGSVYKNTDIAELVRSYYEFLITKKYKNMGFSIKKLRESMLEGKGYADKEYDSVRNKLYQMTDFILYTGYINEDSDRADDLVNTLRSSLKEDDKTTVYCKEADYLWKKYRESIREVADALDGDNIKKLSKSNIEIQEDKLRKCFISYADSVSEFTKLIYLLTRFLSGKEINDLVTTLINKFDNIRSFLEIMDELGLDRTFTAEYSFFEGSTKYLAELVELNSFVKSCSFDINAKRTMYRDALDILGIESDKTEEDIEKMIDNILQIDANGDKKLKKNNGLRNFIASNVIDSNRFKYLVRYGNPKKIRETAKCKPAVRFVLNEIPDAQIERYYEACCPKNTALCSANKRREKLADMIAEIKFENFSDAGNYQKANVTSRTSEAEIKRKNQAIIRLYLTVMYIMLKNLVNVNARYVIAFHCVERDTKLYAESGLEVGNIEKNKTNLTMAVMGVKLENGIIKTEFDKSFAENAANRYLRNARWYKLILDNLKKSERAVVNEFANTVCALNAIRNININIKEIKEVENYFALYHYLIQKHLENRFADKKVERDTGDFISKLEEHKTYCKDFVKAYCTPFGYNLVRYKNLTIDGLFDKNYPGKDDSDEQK

B1: target 2 MT 5'PFS CAC 3'PFS UUA (mixed)
RNA 1: CACCCGUGCAAAAUUGCAGGGGUCUAAAACCUUCUCCAAAUUGUUUCAUCCU
RNA 2: GGGAAUGGAUCCACAUCUACGAAUUCCACAGGAUGAAACAAUUUGGAGAAGUUAAGAUCGGAAGAGCACACGU
B2: target 2 MT 5'PFS GGG 3'PFS AGA (mixed)
RNA 1: B1 RNA 1
RNA 2: B1 RNA 2 with C27G, A28G, C29G, U52A, U53G
B3: target 2 MT 5'PFS GGG 3'PFS AGU (mixed)
RNA 1: B1 RNA 1
RNA 2: B1 RNA 2 with C27G, A28G, C29G, U52A, U53G, A54U
B4: target 2 MT 5'PFS GUG 3'PFS AGU (mixed)
RNA 1: B1 RNA 1
RNA 2: B1 RNA 2 with C27G, A28U, C29G, U52A, U53G, A54U
B5: target 2 MT 5'PFS GCA 3'PFS CUA (mixed)
RNA 1: B1 RNA 1
RNA 2: B1 RNA 2 with C27G, A28C, C29A, U52C
B6: target 2 MT 5'PFS GAU 3'PFS AUU (mixed)
RNA 1: B1 RNA 1
RNA 2: B1 RNA 2 with C27G, C29U, U52A, A54U
B7: target 2 MT 5'PFS GUC 3'PFS CUA (mixed)
RNA 1: B1 RNA 1
RNA 2: B1 RNA 2 with C27G, A28U, U52C
B8: target 2 MT 5'PFS GUC 3'PFS CUU (mixed)
RNA 1: B1 RNA 1
RNA 2: B1 RNA 2 with C27G, A28U, U52C, A54U
B9: target 2 MT 5'PFS GAG 3'PFS CAG (mixed)
RNA 1: B1 RNA 1
RNA 2: B1 RNA 2 with C27G, C29G, U52C, U53A, A54G
B10: target 2 MT 5'PFS GAG 3'PFS CAU (mixed)
RNA 1: B1 RNA 1
RNA 2: B1 RNA 2 with C27G, C29G, U52C, U53A, A54U
B11: target 2 MT 5'PFS UUA 3'PFS ACU (mixed)
RNA 1: B1 RNA 1
RNA 2: B1 RNA 2 with C27U, A28U, C29A, U52A, U53C, A54U
B12: target 2 MT 5'PFS CAC 3'PFS UUC (mixed)
RNA 1: B1 RNA 1
RNA 2: B1 RNA 2 with A54C
B13: target 2 MT 5'PFS GAC 3'PFS CCG (mixed)
RNA 1: B1 RNA 1
RNA 2: B1 RNA 2 with C27G, U52C, U53C, A54G
B14: target 2 MT 5'PFS GUA 3'PFS CAA (mixed)
RNA 1: B1 RNA 1
RNA 2: B1 RNA 2 with C27G, A28U, C29A, U52C, U53A
B15: target 2 MT 5'PFS GGG 3'PFS CGG (mixed)
RNA 1: B1 RNA 1
RNA 2: B1 RNA 2 with C27G, A28G, C29G, U52C, U53G, A54G
B16: target 2 MT 5'PFS GGG 3'PFS CGA (mixed)
RNA 1: B1 RNA 1
RNA 2: B1 RNA 2 with C27G, A28G, C29G, U52C, U53G
B17: target 2 MT 5'PFS GGG 3'PFS CGU (mixed)
RNA 1: B1 RNA 1
RNA 2: B1 RNA 2 with C27G, A28G, C29G, U52C, U53G, A54U
B18: target 2 MT 5'PFS GCA 3'PFS CUU (mixed)
RNA 1: B1 RNA 1
RNA 2: B1 RNA 2 with C27G, A28C, C29A, U52C, A54U
B19: target 2 MT 5'PFS GAG 3'PFS CAA (mixed)
RNA 1: B1 RNA 1
RNA 2: B1 RNA 2 with C27G, C29G, U52C, U53A
B20: target 2 MT 5'PFS ACG 3'PFS AUA (mixed)
RNA 1: B1 RNA 1
RNA 2: B1 RNA 2 with C27A, A28C, C29G, U52A
B21: target 2 MT 5'PFS GCA 3'PFS CUC (mixed)
RNA 1: B1 RNA 1
RNA 2: B1 RNA 2 with C27G, A28C, C29A, U52C, A54C
B22: target 2 MT 5'PFS GGG 3'PFS CGC (mixed)
RNA 1: B1 RNA 1
RNA 2: B1 RNA 2 with C27G, A28G, C29G, U52C, U53G, A54C
B23: target 2 MT 5'PFS GCU 3'PFS UAA (mixed)
RNA 1: B1 RNA 1
RNA 2: B1 RNA 2 with C27G, A28C, C29U, U53A
B24: target 2 MT 5'PFS GUC 3'PFS CUC (mixed)
RNA 1: B1 RNA 1
RNA 2: B1 RNA 2 with C27G, A28U, U52C, A54C
B25: target 2 MT 5'PFS ACG 3'PFS AUU (mixed)
RNA 1: B1 RNA 1
RNA 2: B1 RNA 2 with C27A, A28C, C29G, U52A, A54U
B26: target 2 MT 5'PFS GUG 3'PFS AGG (mixed)
RNA 1: B1 RNA 1
RNA 2: B1 RNA 2 with C27G, A28U, C29G, U52A, U53G, A54G
B27: target 2 MT 5'PFS GUG 3'PFS AGC (mixed)
RNA 1: B1 RNA 1
RNA 2: B1 RNA 2 with C27G, A28U, C29G, U52A, U53G, A54C
B28: target 2 MT 5'PFS GUG 3'PFS AGA (mixed)
RNA 1: B1 RNA 1
RNA 2: B1 RNA 2 with C27G, A28U, C29G, U52A, U53G
B29: target 2 MT 5'PFS GGG 3'PFS AGC (mixed)
RNA 1: B1 RNA 1
RNA 2: B1 RNA 2 with C27G, A28G, C29G, U52A, U53G, A54C
B30: target 2 MT 5'PFS GAG 3'PFS CAC (mixed)
RNA 1: B1 RNA 1
RNA 2: B1 RNA 2 with C27G, C29G, U52C, U53A, A54C
B31: target 2 MT 5'PFS GCU 3'PFS UAC (mixed)
RNA 1: B1 RNA 1
RNA 2: B1 RNA 2 with C27G, A28C, C29U, U53A, A54C
B32: target 2 MT 5'PFS GCA 3'PFS CUG (mixed)
RNA 1: B1 RNA 1
RNA 2: B1 RNA 2 with C27G, A28C, C29A, U52C, A54G
B33: target 2 MT 5'PFS GGG 3'PFS AGG (mixed)
RNA 1: B1 RNA 1
RNA 2: B1 RNA 2 with C27G, A28G, C29G, U52A, U53G, A54G
B34: target 1 insC 3' of 12,insA 3' of 10 (mixed)
RNA 1: CACCCGUGCAAAAAUGCAGGGGUCUAAAACUGAGCGGAUAACCUCUCUAUGG
RNA 2: GGGAAUGGAUCCACAUCUACGAAUUCGUACCAUAGAGAGGCUUAAUCCGCUCACCGAGAUCGGAAGAGCACACGU
B35: target 1 insG 3' of 22,insU 3' of 22 (mixed)
RNA 1: B34 RNA 1
RNA 2: B34 RNA 2 with C31G, A32U, U33C, G35U, G40A, C41G, U42G, A44U
B36: target 1 insG 3' of 19,insC 3' of 19 (mixed)
RNA 1: B34 RNA 1
RNA 2: B34 RNA 2 with A34G, G35C, G40A, C41G, U42G, A44U
B37: target 1 insC 3' of 8,insG 3' of 3 (mixed)
RNA 1: B34 RNA 1
RNA 2: B34 RNA 2 with C41U, U43A, A44U, A45C, U46C, C48G, G49C, C50U, U51G

Molecular target: T1, EsCas13d, nuclease-dead
Test: crRNA (strand 1, pre-loaded); Mg2+; 40 mM Tris-HCl pH 7.5, 150 mM NaCl, 6 mM MgCl2, 1 mM DTT, 0.1% Tween-20, 0.2 mg/ml BSA; 25 C; 10 min per concentration, then washed
Details: tags: His6-TwinStrep-SUMO cleaved; N-terminal SNAP kept (SNAP-Surface 488); label: 3' end held by stalled T7 RNA polymerase

| Binder | Kd [nM] |
| --- | --- |
| B1 | 4.4 ± 0.8 |
| B2 | 5.5 ± 0.5 |
| B3 | 6.2 ± 0.5 |
| B4 | 12.3 ± 1.1 |
| B5 | 10.9 ± 2.5 |
| B6 | 8.3 ± 0.8 |
| B7 | 11.8 ± 1.8 |
| B8 | 13.9 ± 1.2 |
| B9 | 5.31 ± 0.29 |
| B10 | 5.14 ± 0.34 |
| B11 | 32 ± 4 |
| B12 | 5.2 ± 1.2 |
| B13 | 13 ± 1.5 |
| B14 | 4.8 ± 0.5 |
| B15 | 8.5 ± 0.5 |
| B16 | 8.2 ± 0.7 |
| B17 | 9.8 ± 0.7 |
| B18 | 16 ± 4 |
| B19 | 4.9 ± 0.7 |

| Binder | Kd [nM] |
| --- | --- |
| B20 | 11 ± 4 |
| B21 | 23 ± 7 |
| B22 | 10.5 ± 0.9 |
| B23 | 7.8 ± 1.8 |
| B24 | 15.5 ± 2.4 |
| B25 | 5.6 ± 1 |
| B26 | 11 ± 0.7 |
| B27 | 7.2 ± 0.4 |
| B28 | 10.3 ± 1.8 |
| B29 | 6.5 ± 0.4 |
| B30 | 5.1 ± 0.5 |
| B31 | 13.2 ± 2.4 |
| B32 | 12.5 ± 2 |
| B33 | 7.5 ± 0.5 |
| B34 | 11.7 ± 1 |
| B35 | 23.5 ± 2.9 |
| B36 | 82 ± 11 |
| B37 | 9.8 ± 0.4 |
